Measurements: doi:10.1101/2021.06.29.450403

Biological target: recombinant rAQP4ct protein (complete cytosolic C-terminal domain of human AQP4, residues 254-323) (human) (UniProt P55087)
Experiment: ITC

“Chicken calmodulin (CaM) (from UniProt P62149 1-149) (natural protein)” was tested, and the stoichiometry N was 1.
